Laboratory results: a protein production outcome set (Wang et al. 2014)

Experiment: label from the status in PepcDB records
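Further: failed if final PepcDB status was selected cloned or expressed and not failed if soluble or beyond.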

| Sequence | protein production |
| --- | --- |
| MPVTETIPLHETARERYLNYALSVITSRALPDIRDGLKPVQRRILFAMFDSLNLYPSKRHRKSATVVGETMGKYHPHGDKAIYDAMVRMAQSFSLRAPLVDGHGNFGSLDGDSAAAMRYTEAKLQPLAMEMLEGLRDETVDYRDNFDGSLEEPVVLPARVPNLLVNGASGIAVGMATNIPPHNLGEVVDAALHMIEEPEVDTSTLVRDHIQGPDFPTGGRILNTQDELAEIYETGSGTIEMRGAYRTKGKTRAIIESVPYGVDKSKIVEEIADHIAEENVPQLSNVRDESTDDVRIVLELKRGSDTEAAMAYLFKHTKLQKRFHVNLTCLVPTESTDVKAPKQVDLRTILRYFLDFRLDVVTRRLQNELAELEARIHILEGFETIFDALDEAIEIIRASKNKADAAQRLMHRFQLDEEQTDAILETQLYKLSQMEIEAIRDELGEKRARAEGIRRLLDDEDARWGIVKDELQDIRDEYTDERRSTLVGPGADMEYTEEDYIVDEDVHVIVTRDGWVKRQGTYSDLDAIRTRDGDEVGWALAGSTRATVGFFTNYGTCYTTRITEIPSTTGYGDPVQKLFSFDDGEHVVGVVSFDDRALPDPVPAEPSEQGELFDPDDPDAPDQPYVVAISKGGQATRFTLDGYLEPSISTGRKYMRLEDGDEVARVHLARGDENICLASHDGRALVFPVHQVSVYKGPAKGVRAIRLEDNDRVLDFALSTRARDGLTVETNNGREEIVRTTKFDATNRGAKGTLVIKRGYFAEVFPEPVEVPLHEAA | failed |
| MSLEKPYIISVYALIRNEKGEFLLLRRSENSRTNAGKWDLPGGKVNPDESLKEGVAREVWEETGITMVPGDIAGQVNFELTEKKVIAIVFDGGYVVADVKLSYEHIEYSWVSLEKILGMETLPAYFRDFFERFDRENKKPSKLFIEGHHHHHH | not failed |
| MKQQKGVALITILVMVALATILAATIAKHQGNTAESTGYLMRQNQSLLYAKSAEAFFSELLIQDAENSPDVDHLAETWAQPMPPFPVEDGFVSGTLRDESGKFNLNNLVNADGTPNPAAQLWFEQLLVRVGLPAELSQAVIDWQDPDDQITGAMGAESNYYQGLSHPYLAANSKFQSVDELRLVRGFEGKKFDLIRPYISALPSVSTTKVNINTAPALLLASIDKNLDINAVQVALKEKMANLGYFKSVDELWALDAFKNIDQDSKTKISTLLDVKSSYFKAYIEVVLSERKRQFTSDLMRNNKKVYVYSRSLTPIFDIPQN | failed |
| MTNWLIAYQGEPGAYSEIAALRFGEPLPCESFDDVFSAVTEQKADYAVIPIENSLGGSIHQNYDLLLRRPVVILAETFVKVEHCLLGLPGASVETATKAMSHPQALVQCHNFFATHPQIRAEAAYDTAGSAKMVAESRDKSALAIASKRAGELYGLDILKENLADEEWNITRFFCIAHENNPDISHLKVRPDVARQKTSIVFALPNEQGSLFRALATFALRGIDLTKIESRPSRKKAFEYLFYADFIGHREDQNVHNALENLREFATMVKVLGSYGVVNP | not failed |
| MALAMNRSITAITVTHNSAHTVRGALARLPPGVEIVCVDNASTDDLSTALSDLAVHRIDNPVNLGFGRACNIGAAAATGEYLLFINPDVRLGTDAVDALLQAAERYPNCGVFVPRTNTVDGRLWFREESEIDRLSGVSLPTRIRQVWGDCCVRFVNGGVFMIKRTLFLDTGGFDEDIFLYFEDDDLSYRLLQRDEPMILVSGAHAVHDIGTSVAQSTRSRIFRYRSKMRSEIHLRKKYGIAYSPFVDILRYSTKIGFYCLTLNRNRLINSLGRLIGIFDSILDRSRANRNGGYVALEHHHHHH | not failed |
| WTGEDSAEPNSDSAEWIRDMYAKVTEIWQEVMQRRDDDGTLHAACQVQPSATLDAAQPRVTGVVLFRQLAPRAKLDAFFALEGFP | failed |
| MDEISTGMLLVILAVLLFLSAYFSGSETGMMSINRYRLRHLVQNNHPGAKRVQYLLDRPDRLIGLILIGNNLVNIGASAIATILCLRWFGDAGIVIATFGLTLIILIFSEVTPKTIAALHPERISFPSSLILMPLLKVMYPIVIGMNFITNSFMRLLGVNPKQSQMADALSSDELRTVVNEAGNLIPTSHQEMLVSILDLEKVTVEDVMVPRNEIVGIDISDDWKSIVKQLSNGQHTRVLLYRNEIDDAIGFLHARDIMRLMSKNQFTADKSILVRAARDSYFIPEGTPLNVQLLKFQRRKERIGLVVDEYGDIQGLVTLEDILEEIVGDFTTSMAPAPSESVTLETDGSFLVDGSANLRELNKEMNWDFPTDGPKTLSGLIIEQFGDIPDARLSLRLGGYPVELVEIGDTMIKQIRVFPELYQKPDNQTND | failed |
| MATRRTFLRGAISLTLIGSTGQLRALAHPRANTWALPIDTQAQADLTRYVDVFIGSSGHGHTFPGATLPFGMVQLSPDTDNAVWDACSGYHASNGSIMGFSHTHLSGTGIGDMLDILLMPGTGDVKLAPGPLNAPETGYRQRYDHAEEVASPGYYQVRLKDTDIVAELTATARTGLHRYHFPQHQAGHLLLDLSHAMQDNPSTPPRLRDVELSIVDTRTLLGGRRVYQWAKGRYLFFAMRLSRPFARAQLYSNDAPLTADTRQVQGVCLKAALHFPDAGEAPLLVKVGLSAVSAANALANLDAELPDFDFARVHAEAVAAWENALGRARIATDNPAQRRIFYTSLYHSLLAPTLFSDVDGRYRGMDLQVHTLPTGYHNYSTYSLWDTYRALHPLLTLVQSDRVPDLLQCLVRGAAECPDGVGIWPLQGVETGCMIGYHSAVALAEGYTKGFTGIDYAAAWPHYRKRAMQDHAHGLRYYRRLGYIPSDKVDESVSRTLEYAYDDWACAHLATAAGAHSEARVLRARSRHYRHVFNRDSGFMQPRLENGAWATPFDPRALGHLKQWHDFTECNAWQATFLNQHDVYGYMALFGGADHFAAKLDALFSALSELPPGAPPDIDGMVGQYAHGNEPSHHIAYLYVYAGQAYKTQAMVRRLLREQYHDGRDGLSGNEDCGQMSAWFVLSALGMYAVDPVSGIYVIGSPLFPYAELDVGRGRKLRILARHTSASNVYVQALRWNGSPMTRAWLRHTELAGGGTLEFEMGAQPNLDFGTHPQDLPPSFMALQPVPKHA | failed |
| MVSVNLPWELVEEILCRVPPQSLVKFRTVCKQWNSLFDDNKFVNDHFVQSQPQLIFRTESKIYSVAVNFKGPRIEVHELPLAIPGLKSEMPIRLHDYVDCDGLLFCTSYFNGVLIWNPWLRQTRFFPSIHRYPVTYDIGYDNKKQYKMLDYYKCEGDSSIKSIIYEIGLYSKKVKDLESDSTWSIFQSNSVSLNGTLYWAGVDVNNGIFIRSFSFSTEKPRTFCSLPFMYDDDNVLALAVFRKDRLSLLNLCNKTSEIKIWLTKNNINDREVGLEEDVVWINLMTVLIPNFPKFSFYWYNRPDLTYFLDNDDAKRLVICCYDETDQAYIYIVKGDMFKKIKIDQYEVLSDYSRPHFHTYIPSLVRPSRVKEDNKN | failed |
| MQFFDGYHYHGTTFEQSYRCYPASFIDKPQLESGDKIIMPPSALDRLASLHIDYPMLFELRNAGIERVTHCGVLEFIAEEGMIYMPYWMMQNLLLQEGDIVRVRNVTLPKGTYVKLQPHTTDFLDISNPKAILETALRNYSCLTSGDSIMVPYNNKKYFIDIVETKPANAISIIETDCEVDFAPPLDYKEPERPTAPSAAKGPAKAEEVVDEPEPKFNPFTGSGRRLDGRPLAYEPAPASSSKGKQPVVANGNGQSSVASSSEKATRAQGKLVFGANGNRAPKEAAPKVGAAKETKKEEQEKKDEPKFQAFSGKKYSLRG | not failed |
| MKQSGTAAHKLTIFYVGMLLLFLIGLWLFATIGKELETNVVDKAMSLRGRGGLVGAFDSFSESVHHHFTDTIGVLLLQIIVILTVARLVAWFFGKIGQPTVIGEIVAGILLGPSLLGAVWPEAYEVLFPLSALANLELLSQFGLILFMFVIGMELNINDIKPRFSQSMIISHAGIFIPFLLGLLISYMTYKDYAADTTTFLPYGLFIGISMSITAFPVLARIIQERQLGKSHLGMLSISTAAAGDISAWLMLAGVMAITQSGSFLSAIYNFLFLILYLLVIFGLVRPFFKVIGRLYDNQEVVSKTMIGFIFVLLLASAYATELLSMHALFGAFMLGLVMPENVQFRKILTEKVEDVSLTLFLPLFFVSSGLQTKLGLLDSASLWLLTGAFTLIAIIGKFGGTYVAARFCGERKKASLYLGAFMNTRGLMELVVLAIGRELGILPPVIFTILVMMTLITTFMTTPLLRLIDLFFKRETELENAALQKENSGAVLLSFGRASSGAHLLHATDLLMHRGDEKPSVTALHITVGSDTNLTSSEVYEERAFAPIREESDRRRLPIRTLHHHTFEHPEAEVVRTVNAGGYSFLLVGAGINLSDRKSDRELLYFRKKLQRKLGPISIATPEALLNAHEMLRDKMHYFIEQTQCSVGIFIHRGFKHAGKVLLLMENEGDEELLAYARSLARNNGSVLDVLPETDGLPPTLSMGENRLKAGLPSTINISSYHFMLVSYRYWLRFAGECPSVIEHLPSTIIIHHRNDRSSTLKAAMI | failed |
| MSLSMRDPVIPGTSMAYHPFLPHRAPDFAMSAVLGHQPPFFPALTLPPNGAAALSLPGALAKPIMDQLVGAAETGIPFSSLGPQAHLRPLKTMEPEEEVEDDPKVHLEAKELWDQFHKRGTEMVITKSGRRMFPPFKVRCSGLDKKAKYILLMDIIAADDCRYKFHNSRWMVAGKADPEMPKRMYIHPDSPATGEQWMSKVVTFHKLKLTNNISDKHGFTLAFPSDHATWQGNYSFGTQTILNSMHKYQPRFHIVRANDILKLPYSTFRTYLFPETEFIAVTAYQNDKITQLKIDNNPFAKGFRDTGNGRREKRKQLTLQSMRVFDERHKKENGTSDESSSEQAAFNCFAQASSPAASTVGTSNLKDLCPSEGESDAEAESKEEHGPEACDAAKISTTTSEEPCRDKGSPAVKAHLFAAERPRDSGRLDKASPDSRHSPATISSSTRGLGAEERRSPVREGTAPAKVEEARALPGKEAFAPLTVQTDAAAAHLAQGPLPGLGFAPGLAGQQFFNGHPLFLHPSQFAMGGAFSSMAAAGMGPLLATVSGASTGVSGLDSTAMASAAAAQGLSGASAATLPFHLQQHVLASQGLAMSPFGSLFPYPYTYMAAAAAASSAAASSSVHRHPFLNLNTMRPRLRYSPYSIPVPVPDGSSLLTTALPSMAAAAGPLDGKVAALAASPASVAVDSGSELNSRSSTLSSSSMSLSPKLCAEKEAATSELQSIQRLVSGLEAKPDRSRSASP | failed |
| SFRTTKEEVVEKAKAFISAHYTEELNLSVIASQLYVNPFYLRRIFKEETELSPSQYLLKKRIEAALALLVNQEETITDIAFKVGFKSPAHFSTVFRHMIGLPPQKYRES | failed |
| MKVKKLVGTLLATALFFSALTATYYYQKYQALLANNVENTAKEALHQLAYTGREYNNIQDQIETISDLLGHSQSLYDYLREPSKANLTILENMWSSVARNQKLYKQIRFLDTSGTEKVRIKYDFKTSIAGPSLILRDKSAREYFKYAQSLDNEQISAWGIELERDKGELVYPLSPSLRILMPISVNDVRQGYLVLNVDIEYLSSLLNYSPVRDFHIELVKHKGFYIASPDESRLYGDIIPERSQFNFSNMYPDIWPRVVSEQAGYSYSGEHLIAFSSIKFVSNEPLHLIIDLSNEQLSKRATRDINDLIQESLFVLSLVLVFTLPITALALHYRRHSVESKLARAALDGMTAVMISDASLRIIMVNQEFENMMGYSTEQVKGSNAHSLILLPEDLEETLNIWNKLGRENVWEGEVRCRTQLNHVFTAIMRIQANLTKSGKISYYITSLVDISERKALEEQLRNLSEKDGLTGLWNRRKFEEQLTHYANIVERYPDTPTTCLALFDIDHFKRINDERGHDEGDKVICSVAETLLREVRTTDFVSRVGGEEFAVIMPHTTVKEAEVVLNRLRVAVQLRSNMTVTVSAGYSDLTADRTRSYKCADIALYESKSAGRNCVSLCHSIDDIA | failed |
| MKIQCDVCEKAPATLICCADEAALCAKCDVEVHAANKLASKHQRLFLDSLSTKFPPCDICLEKAAFIFCVEDRALLCRDCDEATHAPNTRSANHQRFLATGIRVALSSTSCNQEVEKNHFDPSNQQSLSKPPTQQPAAPSPLWATDEFFSYSDLDCSNKKEQLDLGELDWLAEMGLFGDQPDQEALPVAEVPELSFSHLAHAHSYNRPMKSNVPNKKQRLEYRYDDEEEHFLVPDLG | not failed |
